This note sets out measurements from paper PMC11914429, “Reprograming of the ubiquitin ligase Ubr1 by intrinsically disordered Roq1 through cooperating multifunctional motifs” (The EMBO Journal, 2025).

One assay concerns the target T1, FLAG-Ubr1 (S. cerevisiae, UniProt P19812 1-1950).
T1 construct: ubiquitin ligase Ubr1 of yeast; single subunit of about 200 kDa, nearly 2000 residues; The purified protein comes from a strain with ubr1::nat-PGPD-FLAG-UBR1, so probably the whole protein; source: protease-deficient yeast expressing FLAG-Ubr1 (SSY2908), purified (anti-FLAG agarose, eluted with FLAG peptide); roq1 knockout yeast expressing FLAG-Ubr1, in lysate; not shown: FLAG, N-terminal, kept
Put plainly: BLI; biotinylated Rad6 immobilised on streptavidin biosensors, 100 nM soluble Ubr1, without or with 200 nM or 1 µM Roq1(22-104); essentially irreversible, only association analysed. The following applies: both partners purified.

The next assay has as its target T2, FLAG-Ubr1, P19812.
T2 chain: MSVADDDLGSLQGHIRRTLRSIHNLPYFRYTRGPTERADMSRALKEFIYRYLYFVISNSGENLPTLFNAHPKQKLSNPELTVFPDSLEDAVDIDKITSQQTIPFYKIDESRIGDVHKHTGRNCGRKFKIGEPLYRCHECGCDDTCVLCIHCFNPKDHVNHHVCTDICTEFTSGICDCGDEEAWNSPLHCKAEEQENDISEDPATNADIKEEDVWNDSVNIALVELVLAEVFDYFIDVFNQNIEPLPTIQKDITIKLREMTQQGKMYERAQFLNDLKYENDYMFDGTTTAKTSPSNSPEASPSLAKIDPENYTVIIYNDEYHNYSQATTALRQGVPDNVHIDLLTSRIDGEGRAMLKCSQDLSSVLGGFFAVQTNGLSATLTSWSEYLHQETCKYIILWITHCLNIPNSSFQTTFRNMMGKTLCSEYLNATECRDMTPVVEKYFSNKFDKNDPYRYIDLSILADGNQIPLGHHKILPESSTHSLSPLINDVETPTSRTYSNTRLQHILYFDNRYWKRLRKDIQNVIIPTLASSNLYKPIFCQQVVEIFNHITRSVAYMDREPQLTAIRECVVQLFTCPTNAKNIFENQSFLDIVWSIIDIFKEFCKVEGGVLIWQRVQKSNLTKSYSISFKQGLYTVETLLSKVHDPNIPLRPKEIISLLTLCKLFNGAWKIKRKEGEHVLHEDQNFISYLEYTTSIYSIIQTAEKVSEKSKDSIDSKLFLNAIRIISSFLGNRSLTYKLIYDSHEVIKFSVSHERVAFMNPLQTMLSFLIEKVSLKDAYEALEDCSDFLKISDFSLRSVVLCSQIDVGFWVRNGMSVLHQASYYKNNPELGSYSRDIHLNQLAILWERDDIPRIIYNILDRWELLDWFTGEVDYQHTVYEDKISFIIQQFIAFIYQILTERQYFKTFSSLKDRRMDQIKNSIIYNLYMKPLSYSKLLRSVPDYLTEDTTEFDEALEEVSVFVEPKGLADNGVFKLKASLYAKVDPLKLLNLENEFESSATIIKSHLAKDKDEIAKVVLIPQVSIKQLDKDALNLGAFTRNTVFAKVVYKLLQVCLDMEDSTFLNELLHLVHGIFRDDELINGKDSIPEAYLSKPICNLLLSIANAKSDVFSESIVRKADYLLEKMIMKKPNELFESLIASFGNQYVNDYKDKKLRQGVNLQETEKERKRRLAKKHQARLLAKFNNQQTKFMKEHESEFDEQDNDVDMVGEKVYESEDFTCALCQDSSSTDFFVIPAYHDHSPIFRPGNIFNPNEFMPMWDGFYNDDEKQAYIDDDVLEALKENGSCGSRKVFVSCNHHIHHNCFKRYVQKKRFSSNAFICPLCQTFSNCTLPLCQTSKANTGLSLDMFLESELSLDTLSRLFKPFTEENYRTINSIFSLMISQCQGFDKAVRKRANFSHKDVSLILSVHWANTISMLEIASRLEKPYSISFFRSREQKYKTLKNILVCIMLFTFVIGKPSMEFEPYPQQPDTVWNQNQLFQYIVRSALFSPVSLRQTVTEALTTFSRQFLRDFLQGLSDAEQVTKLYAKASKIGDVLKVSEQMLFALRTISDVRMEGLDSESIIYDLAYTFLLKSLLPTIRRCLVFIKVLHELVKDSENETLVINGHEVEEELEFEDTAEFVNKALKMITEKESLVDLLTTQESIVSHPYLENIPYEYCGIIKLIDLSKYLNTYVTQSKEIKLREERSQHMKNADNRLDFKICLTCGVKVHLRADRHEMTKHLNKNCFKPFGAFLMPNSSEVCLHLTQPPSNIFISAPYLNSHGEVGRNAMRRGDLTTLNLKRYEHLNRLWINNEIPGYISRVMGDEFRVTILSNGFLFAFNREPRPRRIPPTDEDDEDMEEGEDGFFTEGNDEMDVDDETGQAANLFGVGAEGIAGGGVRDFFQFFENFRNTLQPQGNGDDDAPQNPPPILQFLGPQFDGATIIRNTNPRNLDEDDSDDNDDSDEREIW
In words: biolayer interferometry. The settings on record: chain shown with the change; 50 nM Ubr1, association step 5 min; value read at end of association (300 s); 50 mM HEPES, 150 mM NaCl, 10 mM MgCl2, 0.05% Tween-20, 0.02% BSA; parent: est. 4.5; read off a plot.

B1: Rad6 (enzyme, UniProt P06104 1-172, looked up)
chain: MSTPARRRLMRDFKRMKEDAPPGVSASPLPDNVMVWNAMIIGPADTPYEDGTFRLLLEFDEEYPNKPPHVKFLSEMFHPNVYANGEICLDILQNRWTPTYDVASILTSIQSLFNDPNPASPANVEAATLFKDHKSQYVKRVKETVEKSWEDDMDDMDDDDDDDDDDDDDEAD
modifications: biotin (amino-reactive NHS-PEG4-Biotin)
notes: ubiquitin-conjugating enzyme Rad6, not conjugated to ubiquitin; The plasmid pCA528-Rad6 was a gift (Axel Mogk); It is probably the yeast protein; also called unloaded Rad6; source: E. coli BL21(DE3), purified (His6-SUMO removed with Ulp1, SEC); not shown: His6-SUMO, N-terminal, cleaved
As for B1, the binding result with FLAG-Ubr1 is reported as “binds”.

B2: Roq1(22-104) R22A; Y55A; Y56A; F57A; V58A (protein)
chain: ASQRDQTRVDSLVEESPMGDFGINNQPTQPGVIAAAAELTNLGIQENTSSNNNNNNNHGDDENGSRYGHGSSLGGDVHSRRCS
As for B2, the response with FLAG-Ubr1, P19812 was 0 nm.

B3: Roq1(22-104) R22A (protein)
chain: ASQRDQTRVDSLVEESPMGDFGINNQPTQPGVIYYFVELTNLGIQENTSSNNNNNNNHGDDENGSRYGHGSSLGGDVHSRRCS
For B3, the response in the assay with FLAG-Ubr1, P19812 was 0.5 nm.

B4: Roq1(22-104) Y55A; Y56A; F57A; V58A (protein)
chain: RSQRDQTRVDSLVEESPMGDFGINNQPTQPGVIAAAAELTNLGIQENTSSNNNNNNNHGDDENGSRYGHGSSLGGDVHSRRCS
On to B4, for which the response with FLAG-Ubr1, P19812 turned out to be 2 nm.
